In this experiment the target is T1, PD-L1 on tumor cell surfaces (mouse pancreatic cancer KC cells) (Mus musculus, UniProt Q9EP73).
T1 construct: endogenous in cells; host or cells: KC mouse pancreatic cancer cells (Pdx1-Cre; LSL-K-rasG12D derived)
Kind of experiment: Competition-binding assay of FITC labeled PD-1 peptides with anti-mouse PD-L1 antibody on KC cells. The settings on record: for fluorescence intensity on cells: FITC labeled peptide 2 μg/ml. How it is done: Two (2) μg of FITC labeled PD-1 peptides were mixed with 0, 5, 20 μg of anti-mouse PD-L1 antibody and then incubated with the KC cells for 2 hours. Unbound peptides and antibodies were washed off. Relative fluorescent intensities of KC cells were measured for each group.
Next, a competition-binding assay was performed to determine specificity of the PD-1 like peptides binding to PD-L1 on tumor cell surfaces. […] The peptides were then added to tissue culture plates with mouse pancreatic cancer KC cells.

T1 sequence (Q9EP73 19-290): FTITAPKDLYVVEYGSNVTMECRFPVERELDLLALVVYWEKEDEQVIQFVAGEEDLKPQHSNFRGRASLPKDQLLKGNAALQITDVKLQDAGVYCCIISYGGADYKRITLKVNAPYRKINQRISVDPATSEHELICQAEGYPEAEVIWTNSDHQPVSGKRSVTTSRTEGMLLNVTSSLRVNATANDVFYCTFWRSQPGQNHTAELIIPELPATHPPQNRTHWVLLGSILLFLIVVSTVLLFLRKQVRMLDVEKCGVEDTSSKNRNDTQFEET

In the case of “NWNRLSPSNQTEKQAACGAISLHPKAKIEESPGHHHH [PD-1(Lin)]”, the “fluorescence intensity on cells” value was “High levels of fluorescence intensity”.
Regarding “NWNRLSPSNQTEKQAAPHHHHCGAISLHPKAKIEE [PD-1 (Y)]”, the “fluorescence intensity on cells” value was “High levels of fluorescence intensity”. Also, the “binding to cells with anti-PD-L1 antibody added” value (20 μg/ml anti-PD-L1 antibody) is recorded as “reduced”.

Source of the values: US12084487B2, “Nanoparticles having molecules that bind or block PD-L1 and uses in treating cancer” (Emory University, priority 2016, dated 2024).
